Reference: article PMC12419796

Target: H1N1 A/PR/8/1934 (Cambridge strain) neuraminidase, recombinant soluble tetramer with tetrabrachion domain (Staphylothermus marinus | influenza A virus H1N1 A/PR/8/1934 (Cambridge strain))
Assay: cross-linking

Substance: H1N1 A/PR/8/1934 (Cambridge strain) neuraminidase, recombinant soluble tetramer with tetrabrachion domain (enzyme)
- stoichiometry N: 4
